Source: PMC8208975, “Extracellular mRNA transported to the nucleus exerts translation-independent function”

T1: ZC3H12D short isoform (hZC36) (Homo sapiens, UniProt A2A288-4 1-321)
T1 sequence: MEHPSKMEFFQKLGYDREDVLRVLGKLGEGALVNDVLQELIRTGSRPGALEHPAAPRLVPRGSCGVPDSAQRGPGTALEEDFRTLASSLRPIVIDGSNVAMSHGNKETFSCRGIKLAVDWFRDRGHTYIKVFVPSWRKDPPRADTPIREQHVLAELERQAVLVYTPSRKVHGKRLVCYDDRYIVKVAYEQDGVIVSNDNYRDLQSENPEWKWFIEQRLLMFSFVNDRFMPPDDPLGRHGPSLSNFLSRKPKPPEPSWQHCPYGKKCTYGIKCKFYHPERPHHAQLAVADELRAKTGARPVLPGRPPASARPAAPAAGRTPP


Key:
[1] = system: ZC3H12D short isoform (hZC36), Alexa Fluor 488 labeled (Homo sapiens); test: FCS; conditions: 1 nM protein, 10 nM RNA; EMSA: 100 mM HEPES pH 7.3, 200 mM KCl, 10 mM MgCl2, 10 mM DTT, glycerol, tRNA; FCS: protein diluted in 50 mM HEPES pH 7.4, 100 mM NaCl; temperature not given
[2] = target: T1, ZC3H12D short isoform (hZC36); test: EMSA; tRNA; very rough estimate by authors; EMSA: 100 mM HEPES pH 7.3, 200 mM KCl, 10 mM MgCl2, 10 mM DTT, glycerol, tRNA; FCS: protein diluted in 50 mM HEPES pH 7.4, 100 mM NaCl; temperature not given; conditions: protein: recombinant; tags: C-terminal myc-FLAG (pCMV6-Entry)

Molecule	Kd [1]	Kd [2]
IL1b-mRNA full length	1 nM	–
bactin-mRNA	1 nM	–
UAUUUAUUUAUGUAUUUAUUGAUUGGUUGAUCUAUUUAAGUUGAUUCAAG (ssRNA) [EMSA probe 5]	–	~31.6 nM
